# Laboratory results: the nanobody polyreactivity screen of Harvey et al. (2022)
# Test: yeast display, Sf9 membrane polyspecificity reagent, FACS + sequencing; frameworks hold sequencing errors
# In short: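 Sorting gates, low and high (top ~1%), were placed on anti-HA fluorescence to track expression and on streptavidin fluorescence to track reagent binding. A clone's polyreactivity label is taken from the gate it came out of. The reagent was 10% biotinylated, detergent-solubilized Sf9 membrane, applied for 1 hour at 4 °C to galactose-induced yeast display cells.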
row,Sequence,polyreactivity (PSR sort gate)
1,QVQLVESGGGLVQAGGSLRLSCAASGIIFYGYAMGWYRQAPGKERELVATIRDSGAGTYYADSVKGRFTISRDNAKNTVYLQMNSLKPEDTAVYYCAATGWIRYDSWGQGTQVTVSS,low polyreactivity
2,QVQLVESGGGLVQAGGSLRLSCAASGIIFYHNTMGWYRQAPGKERELVAAISGSGGSTYYADSVKGRFTISRDNEKNTVYLQMKSLKPEDTAVYYCAAYRRRYPGFDYWGQGTQVTVSS,high polyreactivity
3,QVQLVESGGGLVQAGGSLRLSCAASGIIFYHYAMGWYRQPPGKERELVAAITWSGGTTYYADSVKGRFTISRDNAKNTVYLQMNSMKPEDTAVYYCNADYVPYGFDYWGQGTQVTVSS,low polyreactivity
4,QVQLVESGGGLVQAGGSLRLSCAASGIIFYIYAMGWYRQAPGKERELVAAISSGGNTYYADSVKGRFTISRDNAKNTVYLQMNSLKPEDTAVYYCAAYSRKVSFQYRYDYWGQGTQVTVSS,high polyreactivity
5,QVQLVESGGGLVQAGGSLRLSCAASGIIFYIYAMGWYRQAPGKERELVAAITSSGGSTNYADSVKGRFTISRDNAKNTVYLQMNSLKPEDTAVYYCAAAYRPWQEFYWGQGTQVTVSS,high polyreactivity
6,QVQLVESGGGLVQAGGSLRLSCAASGIIFYIYTMGWYRQAPGKERELVAAINRSGFRTYYADSVKGRFTISRDNAKNTVYLQMNSLKPEDTAVYYCAAGTGSRDYYWGQGTQVTVSS,high polyreactivity
7,QVQLVESGGGLVQAGGSLRLSCAASGIIFYIYTMGWYRQAPGKERELVAAINRSGSRTYYADSVKGRFTISRDNAKNTVYLQMNSLKPEDTAVYYCAAGTGSRDDYWGQGTQVTVSS,high polyreactivity
8,QVQLVESGGGLVQAGGSLRLSCAASGIIFYKYAMGWYRQAPGKERELVAAITSGGGRTYYADSVKGRFTISRDNPKNSVYLQMNSLKPEDTAVYYCAATRPATYAAYDYWGQGTQVTVSS,high polyreactivity
9,QVQLVESGGGLVQAGGSLRLSCAASGIIFYKYTMGWYRQAPGKERELVAAITKSGVRTYYADSVKGRFTISRDNAKNTVYLQMKSLKPEDTSVYYCAAKTPTKDRGSDFDYWGQGTQVTVSS,high polyreactivity
10,QVQLVESGGGLVQAGGSLRLSCAASGIIFYPNAMGWYRQAPGKERELVAAITGSGGSTYYADSVKGRFTISRDNAKNTVYLQMNSLKPEDTAVYYCNARVYWYYPMDYWGQGTQVTVSS,low polyreactivity
11,QVQLVESGGGLVQAGGSLRLSCAASGIIFYQYAMGRNRQAPGKERELVAAISSGVNTYYADSVKGRFTISRDNAKNTVYLQMNSLKPEDTAVYYCAAEKGRLYDWFDIYYIEYYYWGQGTQVTVSS,high polyreactivity
12,QVQLVESGGGLVQAGGSLRLSCAASGIIFYQYAMGWYRQAPGKERELVAAINTSGGSTYADSVKGRFTISRDNAKNTVYLQMNSLKPEDTAVYYCAASYRYVRWKWGYNYWGQGTQVTVSS,high polyreactivity
13,QVQLVESGGGLVQAGGSLRLSCAASGIIFYRNAMGWYRQAPGKERELVAGITSGGSTYYADSVKGRFTISRDNAKNTVYLQMNSLKPEYTAVYYCAAYYRASQRYLQYGYWGQGTQVTVSS,high polyreactivity
14,QVQLVESGGGLVQAGGSLRLSCAASGIIFYRYAMGWYRQAPGKERELVAAISASGDSTYYADSVKGRFTISRDNAKNTVYLQMNSLKPEDTAVYYCAADYGYRYDYWGQGTQVTVSS,low polyreactivity
15,QVQLVESGGGLVQAGGSLRLSCAASGIIFYRYAMGWYRQAPGKERELVSAITWSGVSTSYADSVKGRFTISRDNAKNTVYLQMNSLKPEDTAVYYCAATNYGTFWGGQSERYDYWGQGTQVTVSS,low polyreactivity
16,QVQLVESGGGLVQAGGSLRLSCAASGIIFYRYAMGWYRQAPGKESELVAAITWSGVSTSYADSVKGRFTISRDNAKNTVYLQMNSLKPEDTAVYYCNKDPGTLYGDMDSWGQGTQVTVSS,low polyreactivity
17,QVQLVESGGGLVQAGGSLRLSCAASGIIFYRYAMGWYRQAPGKEWELVAAITWRGGSTYYADSVKGRFTISRDNAKNTVYLQMTSLKPEDTAVYYCAARRRATYEFDYWGQGTQVTVSS,high polyreactivity
18,QVQLVESGGGLVQAGGSLRLSCAASGIIFYSNTMGWYRQAPGKERELVAGISRSGSSTYYADSVKGRFTISRDIAKNTVYLQMNSLKPEDTAVYYCADYRYGVTNAYGYWGQGTQVTVSS,high polyreactivity
19,QVQLVESGGGLVQAGGSLRLSCAASGIIFYSNTMGWYRQAPGKERELVAGISRSGSSTYYADSVKGRFTISRDNAKNTVYLQMNSLKPEDTAVYYCAAYRYGVTNAYGYWGQGTQVTVSS,high polyreactivity
20,QVQLVESGGGLVQAGGSLRLSCAASGIIFYSYAMGWYRQAPGKERELVAAISWSGGSTYYADSVKGRFTISRDNAKNTVYLQMNSLKPEDTAVYYCAKDGYPYLSWLRSAHYDYWGQGTQVTVSS,low polyreactivity
21,QVQLVESGGGLVQAGGSLRLSCAASGIIFYVNAMGWYRPAPGKDRELVAAITFGGDSTYYADSVKGRFTITRDNAKNTVYLQMNSLKQEDTAVYYWAAEGLSLGGYYYWGQGTQVTVSS,low polyreactivity
22,QVQLVESGGGLVQAGGSLRLSCAASGIIFYWNAMGWYRQAPGKEREFVASISGSGGSTYADSVKGRFTISRDNAKKTVYLQMNSLKPEDTAVYYCAADFSNVGVQHDYYWGQGTQVTVSS,high polyreactivity

row,Sequence,polyreactivity (PSR sort gate)
1,QVQLVESGGGLVQAGGSLRLSCAASGIIFYYYAMGWYRQAPGKERELVACISYSGGSTYADSVKGRFTISRDNAKNTVYLQMNSLKPEDTAVYYCAADYDYGGHWYDYWGQGTQVTVSS,low polyreactivity
2,QVQLVESGGGLVQAGGSLRLSCAASGIIFYYYGKGWYRQAPGKEREFVAAISTSGGNTYYADSVKGRFTISRDNAKNTVYLQMNSLKPEDTAVYYCAADDWPWGDAGVDYWGQGTQVTVSS,low polyreactivity
3,QVQLVESGGGLVQAGGSLRLSCAASGIIFYYYTIGWYRPAPGKERELVASITWSGGGSTYYADSVKGRFTISRDNAKNTVYLQMNCLNPEDTAVYYCNADEYYSYYYWGQGTQVTVSS,low polyreactivity
4,QVQLVESGGGLVQAGGSLRLSCAASGIIFYYYTMGWYRQAPGKERELVAAISFSGSNTYYADSVKGRFTISRDNAKNTVYLQMNSLKPEDTAVYYCAARARKDSNRRTYGYWGQGTQVTVSS,high polyreactivity
5,QVQLVESGGGLVQAGGSLRLSCAASGIIFYYYTMGWYRQAPGKERELVASISRDGGSTHYADSVKGRFTISRDNAKNTVYLLMNSLKPEDTAVYYCAARDPTGSSYAFYRRKVYYWGQGTQVTVSS,high polyreactivity
6,QVQLVESGGGLVQAGGSLRLSCAASGIIIKNYSMGWYRQAPGKEREFVAAISYSGTNTYYADSVKGRFTISRDYAKNTVYLQMNSLKPEDTAVYYCARRKTVVYLAGGRRDYYSWGQGTQVTVSS,high polyreactivity
7,QVQLVESGGGLVQAGGSLRLSCAASGIIILEYVMGSYRQAPGKERELVAAINSGGSTYYADSVKGRFTISRDNAKNTVYLQMNSLKPEDTAVYYCAADDYYKFDYWGQGTQVTVSS,low polyreactivity
8,QVQLVESGGGLVQAGGSLRLSCAASGIIIQYYAMGWYRQAPGKERELVATITLRGGITYYADSVKGRFTISRDNAKNTVYLQMNCLKPEDTAVYYCNTDQGTTSDYGYWGQGTQVTVSS,low polyreactivity
9,QVQLVESGGGLVQAGGSLRLSCAASGIIIRKYAMGWYRQAPGKERELVAAITTRGSRTYYADSVKGRFTISRDNAKNTVYFEMNSLKPEDTAVYYCAADFGYAWWWYDTYGYWGQGTQVTVSS,high polyreactivity
10,QVQLVESGGGLVQAGGSLRLSCAASGIIIRKYAMGWYRQAPGKERELVAAITTRGSRTYYADSVKGRFTISRDNAKNTVYLQMNSLKPEDTAVYYCAADFGYAWWWYDTYGYWGQGTQVTVSS,high polyreactivity
11,QVQLVESGGGLVQAGGSLRLSCAASGIIISLYAMGWYSQAPGKERELVATISTGGGTYYADSVKGRFTISRDNAKNTVYLQINSLKPEDTAVYYCAARRSYYGRSYYYWGQGTQVTVSS,high polyreactivity
12,QVQLVESGGGLVQAGGSLRLSCAASGIIIWTNVMGWYRQAPGKEREFVAAISRSGGSTYYADSVKGRFTISRDNAKNTVYLQMNSLKPEDTAVYYCAARLSYSVQKFDYWGQGTQVTVSS,high polyreactivity
13,QVQLVESGGGLVQAGGSLRLSCAASGIIIYNYTMGWYRQAPGKERELVAAISRSGGRTYYADSVKGRFTISRDNAKNNVYLQMNSLKPEDTAVYYCAAAGYYHTYWGTMDFWGQGTQVTVSS,high polyreactivity
14,QVQLVESGGGLVQAGGSLRLSCAASGIILAHYAMGWYRQAPGKERELVAGISRSGTRTYYADSVKGRFTISRDNAKNTVYLQMNSLKPEDTAVYYCNKDAYTYWYFEMGYWGQGTQVTVSS,high polyreactivity
15,QVQLVESGGGLVQAGGSLRLSCAASGIILATYAMGLYRQAPGKEMELVAAISWSGGRTYYADSVKGRFTISRDKAKNTVYLQMNSLKPEDTAVYYCNAAYPAYGRTQYGRYDYWGQGTQVTVSS,high polyreactivity
16,QVQLVESGGGLVQAGGSLRLSCAASGIILGSYAMGWYRQAPGTERELVAGITSGGGTYYADSVKGRFTISRDNAKNTVYLQMNSLKPEDTAVYYCAKLYFHYYRYGYWGQGTQVTVSS,low polyreactivity
17,QVQLVESGGGLVQAGGSLRLSCAASGIILHGYAMGWYRQAAGKEREFVATITVSGSSTYYADSVKGRFTISRDNAKNTVYLQMNSLKPEDTAVYYCAARSWVIVYGLQYDYWGQGTQETVSS,high polyreactivity
18,QVQLVESGGGLVQAGGSLRLSCAASGIILIHNAMGWYRQARGKERELVAAISTRGGRTYYADSVKGRFTISRDNAKNTVYLQMNSLKPEDTAVYYCAAYRTTPYRDYKMDYLGQGTQVTVSS,high polyreactivity
19,QVQLVESGGGLVQAGGSLRLSCAASGIILKRNAMGWYRQAPGKERELVAAITSGGTTSYADSVKGRFTISRDNAKNTVYLQLNSLKPEDTAVYYCATRKPVSVYRFAPVYKNSNYWGQGTQVTVSS,high polyreactivity
20,QVQLVESGGGLVQAGGSLRLSCAASGIILPTYVMGWYRQAPGKERELVAAISRRGGSTYYADSVKGRFTISRDNAKNTVYLQMNSLKPEDTAVYYCNAVSNPVGSAYDYWGQGTQVTVSS,high polyreactivity
21,QVQLVESGGGLVQAGGSLRLSCAASGIILPYYAMGWYRPAPGKEREFVATISSDGTSTYYADSVKGRFTISRDNAKNTVYLQMNSLKPEDTAVYYCDARIRQNPGGDNSWGQGTQVTVSS,low polyreactivity
